# Test results as given in US20010014328A1.
# Target: human FcαRI (IgA Fc receptor, CD89) on effector cells (human) (UniProt P24071)
# Experiment: cell-based or functional assay
Substance,"BsAb-dependent lysis of SKBR-3 cells by purified PMN, 1.0 µg/ml BsAb (FIG. 10)","cytolysis of SKBR-3 breast tumor cells by effector cells in whole blood, 0.1 µg/ml BsAb (FIG. 8)","cytolysis of SKBR-3 breast tumor cells by effector cells in whole blood, 1.0 µg/ml BsAb (FIG. 8)","cytotoxicity of SKBR-3 cells by neutrophil effector cells (51Cr release), 0.1 µg/ml BsAb (FIG. 7)","cytotoxicity of SKBR-3 cells by neutrophil effector cells (51Cr release), 1.0 µg/ml BsAb (FIG. 7)","cytotoxicity of SKBR-3 cells by neutrophils pre-incubated with G-CSF and IFN-γ, 0.1 µg/ml BsAb (FIG. 22)",percent effector cells (monocytes or neutrophils) engaged in phagocytosis of SKBR-3 cells (FIG. 18),"phagocytosis of SKBR-3 cells by monocyte-derived macrophages, 0.1 µg/ml BsAb (FIG. 19, panel 5; about 45% without BsAb)",BsAb-dependent lysis of A431 cells by purified monocytes (FIG. 14),BsAb-dependent lysis of A431 cells with whole blood as source of effector cells (FIG. 15),"cytolysis of tumor cells by TNF-treated monocytes, 1.0 µg/ml BsAb (FIG. 23)","cytolysis of tumor cells by untreated monocytes, 1.0 µg/ml BsAb (FIG. 23)"
A77X520C9 anti-FcαRXanti-HER2/neu bispecific antibody,< 37%,15 to 20%,25 to 30%,6 to 9%,20 to 30%,> 10%,65 to 75%,> 95%,–,–,–,–
A77XH425 bispecific antibody (anti-FcαRI x anti-EGF-R),–,–,–,–,–,–,–,–,< 55%,< 43%,> 60%,> 60%
